Measured values as given in paper doi:10.1101/2025.03.06.641827 (bioRxiv, 2025).
Positions count from the first letter of the chain named. Names and notes keep the numbering of the source.

B1: Staphylococcus aureus threonine dehydratase (IlvA), full length (residues 1-422) (enzyme, UniProt Q2FF63 1-422, looked up)
chain: MTVKTTVSTKDIDEAFLRLKDIVKETPLQLDHYLSQKYDCKVYLKREDLQWVRSFKLRGAYNAISVLSDEAKSKGITCASAGNHAQGVAYTAKKLNLNAVIFMPVTTPLQKVNQVKFFGNSNVEVVLTGDTFDHCLAEALTYTSEHQMNFIDPFNNVHTISGQGTLAKEMLEQAKSDNVNFDYLFAAIGGGGLISGISTYFKTYSPTTKIIGVEPSGASSMYESVVVNNQVVTLPNIDKFVDGASVARVGDITFEIAKENVDDYVQVDEGAVCSTILDMYSKQAIVAEPAGALSVSALENYKDHIKGKTVVCVISGGNNDINRMKEIEERSLLYEEMKHYFILNFPQRPGALREFVNDVLGPQDDITKFEYLKKSSQNTGTVIIGIQLKDHDDLIQLKQRVNHFDPSNIYINENKMLYSLLI
B2: Staphylococcus aureus IlvA regulatory domain (residues 336-422) (domain or fragment, UniProt Q2FF63 336-422, looked up)
chain: EMKHYFILNFPQRPGALREFVNDVLGPQDDITKFEYLKKSSQNTGTVIIGIQLKDHDDLIQLKQRVNHFDPSNIYINENKMLYSLLI
B3: Escherichia coli threonine dehydratase (IlvA), full length, His-tagged (enzyme, UniProt P04968 1-514, looked up)
chain: MADSQPLSGAPEGAEYLRAVLRAPVYEAAQVTPLQKMEKLSSRLDNVILVKREDRQPVHSFKLRGAYAMMAGLTEEQKAHGVITASAGNHAQGVAFSSARLGVKALIVMPTATADIKVDAVRGFGGEVLLHGANFDEAKAKAIELSQQQGFTWVPPFDHPMVIAGQGTLALELLQQDAHLDRVFVPVGGGGLAAGVAVLIKQLMPQIKVIAVEAEDSACLKAALDAGHPVDLPRVGLFAEGVAVKRIGDETFRLCQEYLDDIITVDSDAICAAMKDLFEDVRAVAEPSGALALAGMKKYIALHNIRGERLAHILSGANVNFHGLRYVSERCELGEQREALLAVTIPEEKGSFLKFCQLLGGRSVTEFNYRFADAKNACIFVGVRLSRGLEERKEILQMLNDGGYSVVDLSDDEMAKLHVRYMVGGRPSHPLQERLYSFEFPESPGALLRFLNTLGTYWNISLFHYRSHGTDYGRVLAAFELGDHEPDFETRLNELGYDCHDETNNPAFRFFLAG
modifications: PLP covalently bound to Lys62
B4: Escherichia coli IlvA regulatory domain (amino acids 335-514) (domain or fragment, UniProt P04968 335-514, looked up)
chain: EQREALLAVTIPEEKGSFLKFCQLLGGRSVTEFNYRFADAKNACIFVGVRLSRGLEERKEILQMLNDGGYSVVDLSDDEMAKLHVRYMVGGRPSHPLQERLYSFEFPESPGALLRFLNTLGTYWNISLFHYRSHGTDYGRVLAAFELGDHEPDFETRLNELGYDCHDETNNPAFRFFLAG
B5: Escherichia coli IlvA regulatory domain (335-514) F352A mutant (domain or fragment, UniProt P04968 335-514, looked up)
chain: B4 chain with F18A

Experiments:
SEC = molecular target: the molecule itself; test: SEC
crystal structure [1] = molecular target: the molecule itself; test: crystal structure
crystal structure [2] = molecular target: the molecule itself; test: crystal structure; remark: listed apart in the source

Protein | stoichiometry N (SEC) | further results
B1 | 8 | 
B2 | 4 | 
B3 |  | stoichiometry N (crystal structure [1]): 4
B4 | 2 | 
B5 |  | stoichiometry N (crystal structure [2]): 2
